This is an account of results in patent US20210009693A1 (MABSPACE BIOSCIENCES SUZHOU, published 2021).

Read-outs that look alike come from different tables or passages of the source.

Experiment [1] addresses T1, Recombinant Human PD-L1/CD274 Protein (hPD-L1-his) (human, UniProt Q9NZQ7 19-238).
T1 construct: range 19-238; ACRO Biosystem PD1-H5229, made in HEK293; also called human PD-L1-his; hPD-L-his
Kind of experiment: ELISA on coated hPD-L1-his; bound at pH7.4, then 2 h at pH7.4.

For experiment [2], the target named is T1, Recombinant Human PD-L1/CD274 Protein …. As to the kind of experiment: ELISA on coated hPD-L1-his; bound at pH7.4, then 2 h at pH5.5.
For experiment [3] the target is unchanged. Described as above. This is another data set of the same source.
For experiment [4], the target named is T2, human PD-L1 expressed on cells (human, UniProt Q9NZQ7 19-290).
T2 construct: whole, on cells; also called hPD-L1 expressed on HCC827; hPD-L1 on MC38/hPD-L1 cells
T2 sequence (Q9NZQ7 19-290): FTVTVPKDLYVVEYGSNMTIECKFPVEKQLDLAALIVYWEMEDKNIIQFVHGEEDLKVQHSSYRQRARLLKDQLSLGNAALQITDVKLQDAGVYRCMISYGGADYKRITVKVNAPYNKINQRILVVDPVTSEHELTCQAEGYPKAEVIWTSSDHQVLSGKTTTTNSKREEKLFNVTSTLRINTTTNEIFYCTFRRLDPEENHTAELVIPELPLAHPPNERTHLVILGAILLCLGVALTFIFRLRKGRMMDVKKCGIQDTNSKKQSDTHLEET
As to the kind of experiment: FACS, IFN-gamma stimulated HCC827 cells. As to the method: Log phase IFN-γ stimulated (500U/ml for 2 days) HCC827 cells were collected and resuspended in blocking buffer (5% BSA+PBS). 2×10\hat{ }5 cells were added to each tube and then washed once with PBS (1500 rpm, 5 mins, RT). The 100 μl/tube serial diluted biotinylated PD-L1 antibodies with blocking buffer were added into corresponding tubes and incubate at 4° C. for 1 hr.

In experiment [5] the target is T2, human PD-L1 expressed on cells. Kind of experiment: blocking FACS on HCC827 cells; blocked ligand: biotinylated hPD-1-N297A. How it is done:
(§1) Log phase IFN-γ stimulated (500U/ml for 2 days) HCC827 cells were collected and resuspended in blocking buffer (5% BSA+PBS). 2×10\hat{ }5 cells were added to each tube and then washed once with PBS (1500 rpm, 5 mins, RT). The 100 μl/tube serial diluted PD-L1 antibodies (see FIG. 8) with blocking buffer were added into corresponding tubes and incubate at 4° C. for 1 hr. […] After washing for three times with PBS, 100 μl/tube streptavidin-PE 1:200 (EBiosciences) in blocking buffer was added to each tube. The cells were incubated at 4° C. for 1 hr and then washed twice with PBS, followed by resuspending cells in 150 μl PBS for each sample. The cells were then transferred into FACS tube and the binding of the antibodies to the cells were detected with flow cytometry (ACEA Bioscience Novocyte).

For experiment [6], the target named is T1, Recombinant Human PD-L1/CD274 Protein …. As to the kind of experiment: ELISA on coated hPD-L1-his; bound at pH7.4, then 2 h at pH7.4. The source holds these as a separate data set. A general note: In an ELISA, binding on a coated surface is turned into a signal by an enzyme label.
For experiment [7] the target is unchanged. Described as above. This is another data set of the same source.
For experiment [8], the target named is T2, human PD-L1 expressed on cells. Kind of experiment: blocking FACS on HCC827 cells; blocked ligand: biotinylated hPD-1-N297A. How it is done: as §1, with “RT).” for “RT). The 100 μl/tube serial diluted PD-L1 antibodies (see FIG. 8) with blocking buffer were added into corresponding tubes and incubate at 4° C. for 1 hr.”, “1:200” for “1:200 (EBiosciences)”, “Novocyte) (see FIGS. 20A and 20B).” for “Novocyte).”
The source holds these as a separate data set.

The target of experiment [9] is T1, Recombinant Human PD-L1/CD274 Protein …. Kind of experiment: ELISA on coated hPD-L1-his; bound at pH7.4, then 2 h at pH5.5. This is another data set of the same source.
The target in experiment [10] is hPD-L1 (antigen of the Biacore assay) (human, UniProt Q9NZQ7 19-238, limits assumed). Kind of experiment: SPR (Biacore), antibody captured on anti-human Fc, antigen in flow. The procedure, abridged: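 Antibody captured to 200–300 RU on an anti-human Fc CM5 surface, with an uncaptured flow cell as reference; antigen injected at varying concentrations, 180 s association, in HBS-EP pH 7.4. Regeneration with glycine pH 1.5 for 120 s; reference-subtracted signals evaluated.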
hPD-L1 (antigen of the Biacore assay), sequence (Q9NZQ7 19-238 limits assumed): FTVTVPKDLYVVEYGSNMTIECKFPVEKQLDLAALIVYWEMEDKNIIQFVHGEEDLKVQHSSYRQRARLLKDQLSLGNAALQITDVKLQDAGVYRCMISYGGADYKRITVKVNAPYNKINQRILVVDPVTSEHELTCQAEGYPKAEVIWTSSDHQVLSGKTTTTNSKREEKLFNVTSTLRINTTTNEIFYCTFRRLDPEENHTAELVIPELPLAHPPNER

Experiment [11] addresses T3, Human PD-L1/CD274 with C-Fc Tag (hPD-L1-Fc) (human, UniProt Q9NZQ7 19-238).
T3 construct: range 19-238; ACRO Biosystem PD1-H5258, made in HEK293; also called human PD-L1-Fc; not shown: Fc fragment of human IgG1 at C-terminus
Kind of experiment: blocking ELISA on coated hPD-L1-Fc; blocked ligand: biotinylated hPD-1-N297A.

Experiment [12] concerns the target T1, Recombinant Human PD-L1/CD274 Protein …. Kind of experiment: ELISA on coated hPD-L1-his; bound at pH7.4, then 2 h at pH7.4. How it is done: (§2) The pH-dependent binding affinity was further measured at various pH values, such as pH4, pH4.5, pH5.0, pH5.5, pH6.0, pH7.4. The measurement by ELISA was conducted similarly to the method described above. High-binding clear polystyrene 96 well plates were coated with 100 μl/well of a 0.5 μg/ml hPD-L1-his in high pH coating buffer and incubated overnight at 4° C. Then the coated plates were washed 3 times with shaking for 10s on an automatic plate washer with PBS+0.1% Tween 20 (Amresco). Then 200 μl of blocking buffer (1% BSA (Solarbio)+1% normal goat serum (Solarbio)+0.05% Tween 20 (Amresco)) was added to each well and the plates were then incubated for 2 hours at room temperature and washed 3 times as above. […] The plates were then washed once with 250 μl/well washing buffer at pH7.4, pH6.0, pH5.5, pH5.0, pH4.5 or pH4.0 and then 100 μl/well pH7.4 or pH5.5 washing buffer was added and the incubation was continued for 2 hours at RT with shaking. Afterwards, the plates was washed 3 times washing buffer at pH7.4 and 100 μl/well of a solution of HRP conjugated goat anti-hIgG HRP antibody (1:20000, Abcam) in pH7.4 dilution buffer was then added to each well of the plate. After that the plates were allowed to incubate for 60 min at room temperature followed by washing 3 times with 250 μl/well pH7.4 washing buffer. Finally, 100 μl/well of TMB was added to each well for 15 min and the reaction was terminated using 50 μl/well of 0.16M/L sulfuric acid. The plates were read on a Thermo Multiscan FC at 450 nm (see FIG. 23A-23F). The measurements were performed in triplicate.
The source holds these as a separate data set.

The target in experiment [13] is T2, human PD-L1 expressed on cells. Kind of experiment: FACS, IFN-gamma stimulated HCC827 cells. This is another data set of the same source. In general terms: Flow cytometry measures light scatter and fluorescence of single cells or particles in a stream.
In experiment [14] the target is T1, Recombinant Human PD-L1/CD274 Protein …. As to the kind of experiment: ELISA on coated hPD-L1-his; bound at pH7.4, then 2 h at pH5.5. As to the method: as §2, with “Finally, 100 μl/well of TMB was added to each well for 15 min and the reaction was terminated using 50 μl/well of 0.16M/L sulfuric acid.” left out, “The measurements were performed in triplicate.” left out
The source holds these as a separate data set.

The target in experiment [15] is T4, human PD-L1-Fc mutant E58A (human).
T4 construct: Position 58 counts on native human PD-L1 (NP_054862.1); also called E58A mutant
T4 sequence (chain, as listed by the source E58A E58A limits assumed): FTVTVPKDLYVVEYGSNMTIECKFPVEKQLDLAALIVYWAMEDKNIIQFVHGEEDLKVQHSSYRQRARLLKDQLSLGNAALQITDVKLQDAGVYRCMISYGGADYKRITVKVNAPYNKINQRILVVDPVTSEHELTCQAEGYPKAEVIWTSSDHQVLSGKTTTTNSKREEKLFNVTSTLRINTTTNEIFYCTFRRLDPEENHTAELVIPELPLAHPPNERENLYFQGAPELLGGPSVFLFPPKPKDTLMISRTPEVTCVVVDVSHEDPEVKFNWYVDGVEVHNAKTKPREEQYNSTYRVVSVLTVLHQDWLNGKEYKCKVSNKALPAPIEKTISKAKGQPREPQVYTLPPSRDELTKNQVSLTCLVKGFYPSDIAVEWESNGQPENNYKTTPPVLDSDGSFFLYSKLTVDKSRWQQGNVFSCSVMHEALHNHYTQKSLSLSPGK
Kind of experiment: ELISA on captured PD-L1-Fc, as in Example 18A.

In experiment [16] the target is T5, wild type human PD-L1-Fc protein (SEQ ID NO: 107) (human).
T5 construct: Extracellular human PD-L1 (amino acid 19-238) with Fc fragment of human IgG1, expressed in 293T cells and used as culture supernatant; also called WT PD-L1; wild-type PD-L1
T5 sequence (chain, as listed by the source limits assumed): as the sequence (chain, as listed by the source E58A E58A limits assumed) above, with A40E counted along it
Kind of experiment: ELISA on captured PD-L1-Fc, as in Example 18A.

Experiment [17] concerns the target T1, Recombinant Human PD-L1/CD274 Protein …. As to the kind of experiment: ELISA, coated hPD-L1-his, acidic wash and incubation after binding at pH7.4. As to the method: as §2
The target is the same in experiment [18]. Kind of experiment: ELISA on coated hPD-L1-his.
Experiment [19] has the same target. As to the kind of experiment: ELISA on coated hPD-L1-his; bound at pH7.4, then 2 h at pH7.4. The source holds these as a separate data set.
The target is the same in experiment [20]. As to the kind of experiment: ELISA on coated hPD-L1-his; bound at pH7.4, then 2 h at pH5.5. This is another data set of the same source.

T1 sequence (Q9NZQ7 other isoform, or with tags, fused parts or gaps limits assumed): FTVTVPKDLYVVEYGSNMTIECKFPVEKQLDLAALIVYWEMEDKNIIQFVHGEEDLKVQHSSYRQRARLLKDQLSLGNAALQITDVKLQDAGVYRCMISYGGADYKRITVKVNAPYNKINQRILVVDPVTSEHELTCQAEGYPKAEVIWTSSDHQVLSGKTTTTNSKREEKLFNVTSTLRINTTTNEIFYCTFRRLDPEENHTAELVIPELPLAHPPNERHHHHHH
T3 sequence (Q9NZQ7 19-238 limits assumed): as the sequence (Q9NZQ7 19-238 limits assumed) above

B1: 21F11-C (antibody, V domains shown)
VH: QVQLQQPGAELVKPGASVKLSCKASGYTFTSNWMHWVKQRPGQGLEWIGMMHPNSGSINYNEKFKNKATLTADKSSSTAYMQLSSLTSEDSAVYYCARSYYGSSPYYFDYWGQGTTLTVSS
VL: DIQMTQTTSSLSASLGDRVTISCRASQDISNYLNWYQQKPDGTVKLLIYYTSRLHSGVPSRFSGSGSGTDFSLTISNLEEEDIATYFCQQGDTLPWTFGGGTKLEIK
notes: Mouse variable regions fused to a human IgG1 constant region; also called 21F11-chimeric; chimeric antibody 21F11
For B1, the “EC50 (read off the curve)” value in experiment [1] and in experiment [2] was approximately 0.01 µg/mL in each case.

B2: 26F5-C (antibody, V domains shown)
VH: QVQLQQPGAELVKPGASVKLSCKASGYTFPSYWMHWMKQRPGQGLEWIGMIQPSTSGTIYNERFKNQVTLTVDKSSSTAYMQLSSQTSEDSAVYYCARGTGTVDYFDYWGQGTTLTVSS
VL: DIVLTQSPASLAVSLGQRATISCRASESVDSYGNSFIHWYQQKPGQPPKLLIHRASNLESGIPATFSGSGSRTDFTLTINPVEADDVATYYCQQSKEDPYTFGGGTKLEIK
notes: Mouse variable regions fused to a human IgG1 constant region; also called 26F5-chimeric; chimeric antibody 26F5
B2: the figures for the “EC50 (read off the curve)” value in experiment [3], in experiment [4] and in [6] were approximately 0.02 µg/mL, approximately 0.1 µg/mL and approximately 0.01 µg/mL, respectively. Also, the “IC50 (read off the curve)” value in [5] is approximately 0.09 µg/mL.

B3: 23F11-H4L4 (produced in CHO cells) (antibody, V domains shown)
VH: QVQLVQSGAEVKKPGASVKLSCKASGYIFTTYWMHWVKQRPGQGLEWIGMIQPNSGGTKYNEKFKKKATLTVDKSISTAYMELSRLTSDDTAVYYCARGAGTVDYFDYWGQGSTLTVSS
VL: DIVLTQSPASLAVSVGQRATITCRASESVDIYGNSFMHWYQQKPGQPPKLLIYRASNLESGIPARFSGSGSRTDFTLTINPVEAQDTATYYCQQSTEDPYTFGGGTKLEIK
notes: also called 23F11-H4L4 (CHO cell derived); 23F11 H4L4 CHO
For B3, the 50% effective concentration (EC50 (read off the curve)) (usually the concentration that produces a half-maximal response) was approximately 0.008 µg/mL in experiment [7] and approximately 0.009 µg/mL in experiment [9]. Also, the “IC50 (read off the curve)” value in experiment [8] was approximately 0.06 µg/mL.

B4: 23A11-H3L5 (antibody, V domains shown)
VH: LVQLVQSGAEVKKPGASVKLSCKASGYIFTTYWIHWVKQRPGQGLEWIGMIQPNSGGTKYNDQFKNRATLTVDKSISTAYMELSRLTSDDTAVYYCARGAGTVDYFDYWGQGTTLSISS
VL: DIVLTQSPASLAVSVGQRATITCRASESVDIYGNSFMHWYQQKPGQAPKLLIYRASNLESGIPARFSGSGSRTDFTLTINPVEANDTATYYCQQSNDDPYTFGGGTKLETK
notes: Human IgG1 constant region with N297A; biotinylated in the alanine-scan ELISA; also called 23A11-H3L5-bio; humanized 23A11
Regarding B4, in experiment [10], the Kd (usually the concentration at which binding is half-saturated) came out at 43.2 nM; the off-rate constant (koff) (in general, the rate constant with which the complex falls apart) is 0.0223 s⁻¹; the on-rate (kon) (usually the second-order rate constant of association) was determined as 517000 M⁻¹ s⁻¹. For the same molecule, the “IC50 (read off the curve)” value in experiment [11] was approximately 0.05 µg/mL. In addition, in experiment [12], the “EC50 (read off the curve)” value is approximately 0.01 µg/mL. For the same molecule, in experiment [13], the concentration for a half-maximal effect (EC50 (read off the curve)) is approximately 0.02 µg/mL. The “EC50 (read off the curve)” value in experiment [14] was approximately 0.02 µg/mL. In [15], the “% of binding of Ab to E58A mutant vs. that to WT PD-L1” value came to 8.3%, the “Mean OD450” value is 0.111 OD450, the “OD450 nM of sample-1” value was found to be 0.128 OD450 and the “OD450 nM of sample-2” value is 0.094 OD450. In addition, in experiment [16], the “Mean OD450” value stood at 1.34 OD450, the “OD450 nM of sample-1” value came to 1.22 OD450 and the “OD450 nM of sample-2” value was found to be 1.47 OD450. In experiment [17], the “binding signal at pH5 as percent of the signal at pH7.4” value was less than 50% and the “binding signal at pH5.5 as percent of the signal at pH7.4” value was less than 75%. For the same molecule, the half-maximal effective concentration (EC50 (read off the curve)) in [18] was approximately 0.002 µg/mL. Moreover, the “IC50 (read off the curve)” value in experiment [8] was approximately 0.05 µg/mL.

B5: 23A11-H3L5 CHO (antibody, V domains shown)
VH: QVQLVQSGAEVKKPGASVKLSCKASGYIFTTYWIHWVKQRPGQGLEWIGMIQPNSGGTKYNDQFKNRATLTVDKSISTAYMELSRLTSDDTAVYYCARGAGTVDYFDYWGQGTTLSISS
VL: DIVLTQSPASLAVSVGQRATITCRASESVDIYGNSFMHWYQQKPGQAPKLLIYRASNLESGIPARFSGSGSRTDFTLTINPVEAQDTATYYCQQSNDDPYTFGGGTKLETK
notes: CHO-produced counterpart of m16; also called 23A11-H3L5 produced in CHO cells
Regarding B5, the results for the “EC50 (read off the curve)” value in experiment [19] and in experiment [20] were approximately 0.006 µg/mL and approximately 0.008 µg/mL, respectively. For the same molecule, the “IC50 (read off the curve)” value in experiment [8] was approximately 0.05 µg/mL.
